Assay: Dissolution test of peptide sample (pH raised stepwise with NaOH until dissolved)
Format: physicochemical
Experimental: For example, a simple dissolution test can be used to evaluate the solubility characteristics of a peptide sample. The test is conveniently carried out at a temperature in the range of from about 20° C. to about 27° C., preferably about 25° C. From about 0.1 to about 0.3 grams of peptide is combined with about 1 to about 3 ml of an aqueous medium. The medium may be deionized water. In the case of T-20 or T-1249, these peptides are mildly acidic. Consequently, the medium optionally may include some initial amount base, e.g., about 17 mM Na2CO3 or the like, to provide a suitable initial pH. […] The mixture is rapidly stirred for 5 to 10 minutes between additional increments. Solids adhering to the sides of the testing vessel should be re-suspended. Rapid mixing should be maintained throughout. Results include observations regarding the clarity of the mixture, time required for dissolution, concentration and amount of caustic used, final pH upon dissolution (if this occurs below pH 9), and the like.
For purposes of the invention, peptides such as T-20, T-1249, and GLP-1, as well as counterparts of these, may be deemed to be in a more desired, deaggregated form if dissolution in accordance with this test occurs at a pH of less than about 8, preferably less than about 7.5. If dissolution occurs at a pH of greater than about 7.5, more preferably greater than about 8, the peptide is deemed to be in a less desired aggregated form. This helps to ensure the practicality of handling the peptide during subsequent processing and handling.

[1] = precipitated with 18% by volume acetonitrile

For “Acetyl-WQEWEQKITALLEQAQIQQE KNEYELQKLDKWASLWEWF-NH2 (Ac-WQEWEQKITALLEQAQIQQEKNEYELQKLDKWASLWEWF-NH2) [Sample T-1249, ID NO; 20]”, the Dissolution behavior (precipitated with 14% by volume acetonitrile) was “dissolved to some degree at a pH of 6.95 but not completely”, the Dissolution time [1] was 1 h and the “Final pH at dissolution” value [1] was 6.69. For the same substance, the Turbidity in words [1] was “only very faint turbidity”, the “Dissolution pH” value (precipitated with 20 to 22 volume percent acetonitrile) was “around 9” and the Dissolution behavior (precipitated with no co-solvent) was “dissolved very slowly with high turbidity even after 14 to 18 hours and even at a pH of 8”.

From patent US20060167220A1, “Methods and compositions for preparing peptides with excellent solubility characteristics in aqueous solution at physiological pH” (priority 2004, published 2006)
